PMC8004850, “The Histidine Phosphocarrier Kinase/Phosphorylase from Bacillus Subtilis Is an Oligomer in Solution with a High Thermal Stability” (International Journal of Molecular Sciences, 2021)

Target: the molecule itself
Assay: small-angle X-ray scattering (SAXS); 50 mM sodium phosphate buffer pH 7.0, 36 (legend: 35) and 8 µM protein, 25 °C; gyration radius compared with that calculated for the hexamer of PDB 1KNX

B1: histidine phosphocarrier protein (HPr) kinase/phosphorylase of Bacillus subtilis (enzyme, UniProt O34483 1-310, looked up)
chain: MAKVRTKDVMEQFNLELISGEEGINRPITMSDLSRPGIEIAGYFTYYPRERVQLLGKTELSFFEQLPEEEKKQRMDSLCTDVTPAIILSRDMPIPQELIDASEKNGVPVLRSPLKTTRLSSRLTNFLESRLAPTTAIHGVLVDIYGVGVLITGKSGVGKSETALELVKRGHRLVADDCVEIRQEDQDTLVGNAPELIEHLLEIRGLGIINVMTLFGAGAVRSNKRITIVMNLELWEQGKQYDRLGLEEETMKIIDTEITKLTIPVRPGRNLAVIIEVAAMNFRLKRMGLNAAEQFTNKLADVIEDGEQEE
notes: HPr kinase/phosphorylase (HPrK/P) of Bacillus subtilis; theoretical molecular weight 36.6 kDa including the His-tag; Vector was a gift from Dr. A. Galinier; Oligomeric state depends on the buffer: monomer in pure water (DLS), mainly hexamer in 50 mM sodium phosphate pH 7.0; also called bsHPrK/P; HPrK/P; source: E. coli BL21 (DE3), purified (Ni-resin, Superdex 200 gel filtration), dialysed against …
stoichiometry N: 6
